The source of these data is patent publication US20260098072A1, “METHODS OF STIMULATING APPETITE AND/OR INCREASING BODY WEIGHT USING NON-NATURALLY OCCURRING MELANOCORTIN RECEPTOR ANTAGONIST ANALOGS” (Endevica Bio, Inc., priority 2022, published 2026).

Positions of bridges follow the written chain, without caps; N, C: chain ends. Non-standard residues stand in square brackets, D forms with d. No end group written: not given here. d2Nal = N[C@H](Cc1ccc2ccccc2c1)C(=O)O; Hyp = O=C(O)[C@@H]1C[C@@H](O)CN1; Nle = CCCC[C@H](N)C(=O)O

The target of test [1] is human melanocortin 3 receptor (MC3R) (human, UniProt P41968 1-323). As to the kind of experiment: cell-based or functional assay.
The target of test [2] is human melanocortin 4 receptor (MC4R) (human, UniProt P32245 1-332). As to the kind of experiment: cell-based or functional assay.
human melanocortin 4 receptor (MC4R), sequence (P32245 whole entry): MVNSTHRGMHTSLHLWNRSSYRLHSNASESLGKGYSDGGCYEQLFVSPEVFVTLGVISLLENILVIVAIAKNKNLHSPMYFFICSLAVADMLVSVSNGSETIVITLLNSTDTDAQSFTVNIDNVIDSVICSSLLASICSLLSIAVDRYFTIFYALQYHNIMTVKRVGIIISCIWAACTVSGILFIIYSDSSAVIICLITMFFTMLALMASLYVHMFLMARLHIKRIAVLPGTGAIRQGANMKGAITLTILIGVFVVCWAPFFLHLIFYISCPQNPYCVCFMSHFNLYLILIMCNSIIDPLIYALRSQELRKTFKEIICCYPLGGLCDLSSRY

human melanocortin 3 receptor (MC3R), sequence (P41968 whole entry): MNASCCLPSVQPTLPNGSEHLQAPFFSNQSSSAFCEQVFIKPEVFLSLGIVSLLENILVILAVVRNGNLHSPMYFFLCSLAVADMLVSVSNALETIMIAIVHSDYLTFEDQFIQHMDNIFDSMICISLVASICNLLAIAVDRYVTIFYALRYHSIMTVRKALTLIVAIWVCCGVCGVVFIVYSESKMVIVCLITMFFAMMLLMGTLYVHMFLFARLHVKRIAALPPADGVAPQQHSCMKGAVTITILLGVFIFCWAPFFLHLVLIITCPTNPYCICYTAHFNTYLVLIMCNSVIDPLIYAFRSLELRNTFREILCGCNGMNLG

B1: B1 (peptide)
peptide: Ac-[Nle]DPFFRWK[dV][dP]-NH2
modifications: lactam 2-8
SMILES: CCCC[C@H](NC(C)=O)C(=O)N[C@H]1CC(=O)NCCCC[C@@H](C(=O)N[C@@H](C(=O)N2CCC[C@@H]2C(N)=O)C(C)C)NC(=O)[C@H](Cc2c[nH]c3ccccc23)NC(=O)[C@H](CCCNC(=N)N)NC(=O)[C@H](Cc2ccccc2)NC(=O)[C@H](Cc2ccccc2)NC(=O)[C@@H]2CCCN2C1=O
On to B1, for which the “Max Activation %” value amounted to 6.86% in test [1] and 12.7% in test [2].

B2: D2 (peptide)
peptide: Ac-[Nle]DH[d2Nal]RWPK[dV][dP]-NH2
modifications: lactam 2-8
SMILES: CCCC[C@H](NC(C)=O)C(=O)N[C@H]1CC(=O)NCCCC[C@@H](C(=O)N[C@@H](C(=O)N2CCC[C@@H]2C(N)=O)C(C)C)NC(=O)[C@@H]2CCCN2C(=O)[C@H](Cc2c[nH]c3ccccc23)NC(=O)[C@H](CCCNC(=N)N)NC(=O)[C@@H](Cc2ccc3ccccc3c2)NC(=O)[C@H](Cc2c[nH]cn2)NC1=O
Regarding B2, the “Max Activation %” value amounted to 31.8% in test [1] and 17.6% in test [2].

B3: TCMCB02 (peptide)
peptide: Ac-[Nle]DP[d2Nal]RWK[dP][dV]-NH2
modifications: lactam 2-7
SMILES: CCCC[C@H](NC(C)=O)C(=O)N[C@H]1CC(=O)NCCCC[C@@H](C(=O)N2CCC[C@@H]2C(=O)N[C@@H](C(N)=O)C(C)C)NC(=O)[C@H](Cc2c[nH]c3ccccc23)NC(=O)[C@H](CCCNC(=N)N)NC(=O)[C@@H](Cc2ccc3ccccc3c2)NC(=O)[C@@H]2CCCN2C1=O
For B3, in test [1], the “IC50 (cAMP by HTRF, antagonist dose-response)” value (“IC50” below) is 1360 nM and the “Max Activation %” value was determined as 101%. For the same molecule, in test [2], the “IC50” value was found to be 57.1 nM and the “Max Activation %” value stood at 120%.

B4: B3 (peptide)
peptide: LDPFFRWKVP
modifications: lactam 2-8
On to B4, for which the “Max Activation %” value in test [1] worked out at 0.83%; in test [2], 4.41%.

B5: D4 (peptide)
peptide: Ac-[Nle]D[Hyp][d2Nal]RWPK[dV][dP]-NH2
modifications: lactam 2-8
SMILES: CCCC[C@H](NC(C)=O)C(=O)N[C@H]1CC(=O)NCCCC[C@@H](C(=O)N[C@@H](C(=O)N2CCC[C@@H]2C(N)=O)C(C)C)NC(=O)[C@@H]2CCCN2C(=O)[C@H](Cc2c[nH]c3ccccc23)NC(=O)[C@H](CCCNC(=N)N)NC(=O)[C@@H](Cc2ccc3ccccc3c2)NC(=O)[C@@H]2C[C@@H](O)CN2C1=O
Take B5: the “IC50” value in test [1] was more than 10000 nM. The “Max Activation %” value was 50.1% in test [1] and 21% in test [2].

B6: D5 (peptide)
peptide: Ac-[Nle]DPH[d2Nal]RWK[dP][dV]-NH2
modifications: lactam 2-8
SMILES: CCCC[C@H](NC(C)=O)C(=O)N[C@H]1CC(=O)NCCCC[C@@H](C(=O)N2CCC[C@@H]2C(=O)N[C@@H](C(N)=O)C(C)C)NC(=O)[C@H](Cc2c[nH]c3ccccc23)NC(=O)[C@H](CCCNC(=N)N)NC(=O)[C@@H](Cc2ccc3ccccc3c2)NC(=O)[C@H](Cc2c[nH]cn2)NC(=O)[C@@H]2CCCN2C1=O
Turning to B6, in test [1], the “IC50” value was more than 10000 nM and the “Max Activation %” value came out at 24.6%. The “Max Activation %” value in test [2] was found to be 41.5%.

B7: A1 (peptide)
peptide: Ac-[Nle]DP[d2Nal]RWK[dV][dP]-NH2
SMILES: CCCC[C@H](NC(C)=O)C(=O)N[C@@H](CC(=O)O)C(=O)N1CCC[C@H]1C(=O)N[C@H](Cc1ccc2ccccc2c1)C(=O)N[C@@H](CCCNC(=N)N)C(=O)N[C@@H](Cc1c[nH]c2ccccc12)C(=O)N[C@@H](CCCCN)C(=O)N[C@@H](C(=O)N1CCC[C@@H]1C(N)=O)C(C)C
In the case of B7, in test [1], the “IC50” value stood at 3660 nM and the “Max Activation %” value worked out at 84.4%. In addition, in test [2], the “IC50” value was found to be 3610 nM and the “Max Activation %” value turned out to be 79.3%.

B8: TCMCB07 (peptide)
peptide: Ac-[Nle]DP[d2Nal]RWK[dV][dP]-NH2
modifications: lactam 2-7
For B8, in test [1], the “IC50” value was 43.4 nM and the “Max Activation %” value was found to be 112%. Besides, in test [2], the “IC50” value came to 26.9 nM and the “Max Activation %” value came to 118%.

B9: B4 (peptide)
peptide: LPFFRWVP
On to B9, for which the results for the “Max Activation %” value in test [1] and in test [2] were 7.81% and 16.1%, respectively.

B10: D1 (peptide)
peptide: Ac-[Nle]DPH[d2Nal]RWK[dV][dP]-NH2
modifications: lactam 2-8
SMILES: CCCC[C@H](NC(C)=O)C(=O)N[C@H]1CC(=O)NCCCC[C@@H](C(=O)N[C@@H](C(=O)N2CCC[C@@H]2C(N)=O)C(C)C)NC(=O)[C@H](Cc2c[nH]c3ccccc23)NC(=O)[C@H](CCCNC(=N)N)NC(=O)[C@@H](Cc2ccc3ccccc3c2)NC(=O)[C@H](Cc2c[nH]cn2)NC(=O)[C@@H]2CCCN2C1=O
Take B10: in test [1], the “IC50” value is 5810 nM and the “Max Activation %” value came out at 74.5%. Besides, in test [2], the “IC50” value is more than 10000 nM and the “Max Activation %” value amounted to 49.4%.

B11: B2 (peptide)
peptide: Ac-LDPFFRWKVP-NH2
modifications: lactam 2-8
SMILES: CC(=O)N[C@@H](CC(C)C)C(=O)N[C@H]1CC(=O)NCCCC[C@@H](C(=O)N[C@H](C(=O)N2CCC[C@H]2C(N)=O)C(C)C)NC(=O)[C@H](Cc2c[nH]c3ccccc23)NC(=O)[C@H](CCCNC(=N)N)NC(=O)[C@H](Cc2ccccc2)NC(=O)[C@H](Cc2ccccc2)NC(=O)[C@@H]2CCCN2C1=O
Consider B11, for which the “Max Activation %” value in test [1] worked out at 10.3%; in test [2], 35.5%.

B12: D3 (peptide)
peptide: Ac-[Nle]D[Hyp][d2Nal]RWK[dV][dP]-NH2
modifications: lactam 2-7
SMILES: CCCC[C@H](NC(C)=O)C(=O)N[C@H]1CC(=O)NCCCC[C@@H](C(=O)N[C@@H](C(=O)N2CCC[C@@H]2C(N)=O)C(C)C)NC(=O)[C@H](Cc2c[nH]c3ccccc23)NC(=O)[C@H](CCCNC(=N)N)NC(=O)[C@@H](Cc2ccc3ccccc3c2)NC(=O)[C@@H]2C[C@@H](O)CN2C1=O
As to B12, in test [1], the “IC50” value was determined as 87 nM and the “Max Activation %” value came to 111%. In test [2], the “IC50” value was found to be 40.6 nM and the “Max Activation %” value was 117%.
